# In patent US11160869B2 (priority 2019, dated 2021):
# B1: IL-10 delivery construct: recombinant homodimeric fusion protein: N-terminal methionine, cholix386 domain, polyGlySer spacer, recombinant human IL-10 (protein)
# chain: MVEEALNIFDECRSPCSLTPEPGKPIQSKLSIPSDVVLDEGVLYYSMTINDEQNDIKDEDKGESIITIGEFATVRATRHYVNQDAPFGVIHLDITTENGTKTYSYNRKEGEFAINWLVPIGEDSPASIKISVDELDQQRNIIEVPKLYSIDLDNQTLEQWKTQGNVSFSVTRPEHNIAISWPSVSYKAAQKEGSRHKRWAHWHTGLALCWLVPMDAIYNYITQQNCTLGDNWFGGSYETVAGTPKVITVKQGIEQKPVEQRIHFSKGNAMSALAAHRVCGVPLETLARSRKPRDLTDDLSCAYQAQNIVSLFVATRILFSHLDSVFTLNLDEQEPEVAERLSDLRRINENNPGMVTQVLTVARQIYNDYVTHHPGLTPEQTSAGAQAGGGGSGGGGSGGGGSPGQGTQSENSCTHFPGNLPNMLRDLRDAFSRVKTFFQMKDQLDNLLLKESLLEDFKGYLGCQALSEMIQFYLEEVMPQAENQDPDIKAHVNSLGENLKTLRLRLRRCHRFLPCENKSKAVEQVKNAFNKLQEKGIYKAMSEFDIFINYIEAYMTMKIRN
# modifications: homodimer
# Experiments:
# [1] = test system: chemokines, growth factors, cytokines; test: Luminex 38-plex circulating cytokines, oxazolone colitis (Example 14); format: in vivo, mice
# Description: Each sample was measured in duplicate.
# [2] = test system: CD3+ cells and F4/80 macrophages; test: Cellular target in lamina propria after oral gavage (CD3, F4/80, pSTAT3); format: in vivo, mouse; details: 40 min after oral gavage
# [3] = test system: cells of the lamina propria (LAMP1, CD11c, CD19, CD34, CD3); test: Cell targeting in the lamina propria after intraluminal injection, immunofluorescence; format: in vivo, Wistar rats
# Description: Rats were anesthetized using inhaled isoflurane and euthanized by inhaled CO2.
# Experiments were initiated by making an approximately 4 cm abdominal incision to access the mid-jejunum region of the small intestine. After performing the incision, 50 μl of a prepared solution of the IL-10 delivery construct (typically at about 1 mg/mL) was injected into the intestinal lumen of an area devoid of foodstuffs through a 27-gauge needle using a 1 mL syringe. The mesentery adjacent to the site of injection was labeled with a marker and the intestine was returned to the abdominal cavity, with the incision being closed with clamps.
# At specific times, the injected intestine was retrieved, surgically isolated and flushed with a 4° C. isotonic PBS. Washed, excised samples were fixed (4% paraformaldehyde in PBS) overnight at 4° C. before dehydration through graded series of ethanol/water solutions and overnight incubation in chloroform.
# Dehydrated tissues were immersed in wax, sectioned, and mounted on poylysine slides and processed for antigen retrieval using sodium citrate. Afterward, sections were permeabilised with 0.2% Triton-X100 in PBS prior to thrice washing in PBS and blocking with 2% BSA+2% serum of the animal the secondary antibodies have been raised. Primary antibodies were diluted in 1% BSA, 0.1% Triton-X100 in PBS and incubated overnight at 4° C. in humidified air. Fluorescent secondary antibodies were diluted in 1% BSA, 0.1% Triton-X100 in PBS and incubated for 2 h at RT prior to processing for confocal microscopy. On occasion, an approximately 1 cm section of intestine at the injection site was collected for biochemical studies.
# Proteins for specific cell types were examined by immuno-fluorescence using confocal microscopy. The IL-10 delivery construct components (the carrier, also referred to herein as “cholix,” and IL-10) were followed separately with either a polyclonal antibody (pAb) or monoclonal antibody (mAb) to IL-10 or a pAb or mAb to the carrier domain to allow co-localization with pAb or mAbs available (TABLE 46).
# plasma cytokines = test: MSD V-plex Proinflammatory Panel 1 plasma cytokines, oxazolone colitis (Example 14); format: in vivo, mice; details: 8.45 mg/kg
# Excerpt: Plasma cytokines were quantified using the V-plex Proinflammatory Panel 1 Mouse Kit. Plasma IL-1Ra was quantitated by sandwich immunoassay using an antibody pair from the Mouse IL-1Ra/IL-1F3 DuoSet ELISA (R&D Systems #DY480), Streptavidin SULFO-TAG Labeled (MSD #R32AD-1), Multi-Array 96 Plate Pack, SECTOR Plate MSD #L15XA-3 and Read Buffer T (4×) (MSD #R92TC-2). Samples were read on the QuickPlex SQ 120 plate reader (Meso Scale Discovery, Rockville, Md.).
# [4] = Purification process trains with S-650F cation exchange: yield, recovery, purity, endotoxin
# Description: Refolding was carried out at 4° C. in a refolding solution containing 1 mM reduced glutathione, 0.5 mM oxidized glutathione, 1M Arginine-HC, 250 mM sucrose, 100 mM Tris pH 8.5 at 4° C., and 2 mM EDTA. […] Buffer A for the CHT bind/elute step in Table 56 may also comprise 25 mM Tris, pH7.5, 300 mM NaCl, 5.0 mM NaPi, 0.5 mM CaCl2. Columns used are described in Table 58.
# The yield, recovery, and purity of the IL-10 delivery construct was assess after each step, and after each process train.
# It was surprising that a cation exchange resin was useful in the purification of the IL-10 delivery construct as cation exchange resins are negatively charged, and thus bind to proteins with a positive charge. Here, the IL-10 delivery construct has a calculated isoelectric point (pI) of 5.49, and thus is anticipated to have a negative charge under conditions traditionally used in a cation exchange chromatography.
# [5] = Control: Capto Q ImpRes, CHT gradient B/E (Table 59)
# [6] = Control: Capto Q, CHT (Linear elution), based on historical data (Table 60)
# [7] = PT1: Capto Q, S-650F, CHT (FT mode) (Table 60)
# [8] = PT2: Capto Q ImpRes, CHT step B/E 80 mM NaPi, S-650F (Table 59)
# [9] = PT2: Capto Q, CHT (Step elution), S-650F (Table 60)
# [10] = PT3: S-650F, Capto Q, CHT (FT mode) (Table 60)
molecule,measurement,setting,value
B1,"increased serum levels of MCSF, IL12 p70, IL-3",[1]; 8.45 mg/kg,Treatment-mediated suppression
same,reduction of plasma IL-23 compared with Vehicle,[1]; 8.45 mg/kg prophylactic,73%
same,reduction of plasma IL-6 compared with Vehicle,"[1]; 8.45 mg/kg prophylactic, Luminex",33%
same,co-localization of pSTAT3 with CD3+ cells,[2],A moderate proportion of CD3+ cells
same,co-localization of pSTAT3 with F4/80 macrophages,[2],extensive co-localization with pSTAT3
same,time by which an extensive amount reached the lamina propria,"[3]; 1-minute pulse, intraluminal injection",≤ 15 min
same,co-localization with LAMP1-positive lysosomes in enterocytes,[3]; 15-minute time course,little or no co-localization
same,co-localization with CD3 antigen (T lymphocytes),[3]; lamina propria,striking co-localizations
same,co-localization with CD19-positive cells (B-lymphocytes),[3]; lamina propria,failed to co-localize
same,co-localization with CD34-positive cells (endothelia),[3]; lamina propria,failed to co-localize
same,co-localization with CD11c (dendritic cells),[3]; rat jejunum lamina propria,did not co-localize with CD11c antigen to any striking extent
same,suppression of induction of IL-4 (trend),plasma cytokines,62%
same,suppression of induction of IL-6 (trend),plasma cytokines,61%
same,suppression of induction of IL-12p70 (trend),plasma cytokines,65%
same,suppression of induction of KC/GRO (trend),plasma cytokines,51%
same,plasma expression of IL-10 and IL-2 relative to Vehicle,plasma cytokines; p<0.05,significantly reduced
same,Purity,[4]; [5],78.2
same,Yield,[4]; [5],68 mg
same,Endotoxin,[4]; [6],*8 EU/mg
same,Purity,[4]; [6],*85%
same,Endotoxin,[4]; [7],8.9 EU/mg
same,Purity,[4]; [7],92%
same,Purity,[4]; [8],78.5%
same,Yield,[4]; [8],26 mg
same,Endotoxin,[4]; [9],5 EU/mg
same,Purity,[4]; [9],91%
same,Endotoxin,[4]; [10],0.4 EU/mg
same,Purity,[4]; [10],96%
